From publication PMC3398191

T1: Atl1 (MBP fusion cleaved with Factor Xa) (Schizosaccharomyces pombe, UniProt Q9UTN9 1-108)
T1 sequence: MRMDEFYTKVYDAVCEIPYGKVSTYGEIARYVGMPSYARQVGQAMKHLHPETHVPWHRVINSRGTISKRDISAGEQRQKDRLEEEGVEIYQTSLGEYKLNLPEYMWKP

B1: O6-MeG 23-mer duplex (dsDNA)
DNA 1: GAACTGCAGCTCCGTGCTGGCCC
DNA 2: GGGCCAGCACGGAGCTGCAGTTC
modifications: O6-methylguanine at G6 of strand 1
B2: O6-BuG 23-mer duplex (dsDNA)
DNA 1: GAACTGCAGCTCCGTGCTGGCCC
DNA 2: GGGCCAGCACGGAGCTGCAGTTC
modifications: O6-n-butylguanine at G6 of strand 1
B3: O6-PobG 23-mer duplex (dsDNA)
DNA 1: GAACTGCAGCTCCGTGCTGGCCC
DNA 2: GGGCCAGCACGGAGCTGCAGTTC
modifications: O6-pyridyloxobutylguanine at G6 of strand 1
B4: O6-HOEtG 23-mer duplex (dsDNA)
DNA 1: GAACTGCAGCTCCGTGCTGGCCC
DNA 2: GGGCCAGCACGGAGCTGCAGTTC
modifications: O6-hydroxyethylguanine at G6 of strand 1
B5: O6-BnG 23-mer duplex (dsDNA)
DNA 1: GAACTGCAGCTCCGTGCTGGCCC
DNA 2: GGGCCAGCACGGAGCTGCAGTTC
modifications: O6-benzylguanine at G6 of strand 1
B6: O6-PrG 23-mer duplex (dsDNA)
DNA 1: GAACTGCAGCTCCGTGCTGGCCC
DNA 2: GGGCCAGCACGGAGCTGCAGTTC
modifications: O6-n-propylguanine at G6 of strand 1
B7: O6-EtG 23-mer duplex (dsDNA)
DNA 1: GAACTGCAGCTCCGTGCTGGCCC
DNA 2: GGGCCAGCACGGAGCTGCAGTTC
modifications: O6-ethylguanine at G6 of strand 1
B8: O6-CMG 23-mer duplex (dsDNA)
DNA 1: GAACTGCAGCTCCGTGCTGGCCC
DNA 2: GGGCCAGCACGGAGCTGCAGTTC
modifications: O6-carboxymethylguanine at G6 of strand 1
B9: O6-BTG 23-mer duplex (dsDNA)
DNA 1: GAACTGCAGCTCCGTGCTGGCCC
DNA 2: GGGCCAGCACGGAGCTGCAGTTC
modifications: O6-(4-bromothenyl)guanine at G6 of strand 1
B10: G control 23-mer duplex (dsDNA)
DNA 1: GAACTGCAGCTCCGTGCTGGCCC
DNA 2: GGGCCAGCACGGAGCTGCAGTTC

What follows are binders tested against T1, Atl1 (MBP fusion cleaved with Factor Xa) (assay: EMSA).
B1: binds. B2: binds. B3: binds. B4: binds. B5: binds. B6: binds. B7: binds. B8: binds. B9: binds. B10: no binding.

Each binder was assayed against Maltose-binding protein (MBP) (UniProt P0AEX9 27-396) (assay: EMSA).
B1: no binding.
